Assay results: article PMC4256047, “Structural and Functional Profiling of Environmental Ligands for Estrogen Receptors” (Environmental Health Perspectives, 2014)
Where no end group is shown, it is not given here. fluorescein = fluorescein label on the N-terminus of the peptide

Columns and labels:
Conditions in all cases: both partners purified
[1] = target: T1, human wt-ERβ LBD (estrogen receptor beta ligand-binding domain, amino acids 261-502) (human, UniProt Q92731 261-502); assay: fluorescence polarisation; fluorescence anisotropy; 4 nM fluorescein-SRC-1 NR2 peptide, LBD diluted 2-fold from 10 uM (ERα) or 20 uM (ERβ); with TCBPA at 20 uM (ERα) or 40 uM (ERβ); 20 mM Tris pH 8.0, 150 mM NaCl, 5 mM DTT, 10% glycerol
T1 construct: Cloned into pET-32a; N-terminal thioredoxine-hexahistidine tag removed with TEV protease; not shown: thioredoxin, N-terminal, cleaved; His6, N-terminal, cleaved
T1 sequence (Q92731 261-502): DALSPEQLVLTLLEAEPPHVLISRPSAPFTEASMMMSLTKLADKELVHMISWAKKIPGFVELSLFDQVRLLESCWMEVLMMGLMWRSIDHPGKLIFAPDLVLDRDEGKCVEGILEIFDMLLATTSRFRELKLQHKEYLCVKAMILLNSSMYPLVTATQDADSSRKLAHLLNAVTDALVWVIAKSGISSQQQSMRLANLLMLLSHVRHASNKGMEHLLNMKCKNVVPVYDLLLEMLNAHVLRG

[2] = target: T2, human wt-ERα LBD (estrogen receptor alpha ligand-binding domain, amino acids 302-552) (human, UniProt P03372 302-552); assay: fluorescence polarisation; fluorescence anisotropy; 4 nM fluorescein-SRC-1 NR2 peptide, LBD diluted 2-fold from 10 uM (ERα) or 20 uM (ERβ); with E2 at 20 uM (ERα) or 40 uM (ERβ); 20 mM Tris pH 8.0, 150 mM NaCl, 5 mM DTT, 10% glycerol
T2 sequence (looked up): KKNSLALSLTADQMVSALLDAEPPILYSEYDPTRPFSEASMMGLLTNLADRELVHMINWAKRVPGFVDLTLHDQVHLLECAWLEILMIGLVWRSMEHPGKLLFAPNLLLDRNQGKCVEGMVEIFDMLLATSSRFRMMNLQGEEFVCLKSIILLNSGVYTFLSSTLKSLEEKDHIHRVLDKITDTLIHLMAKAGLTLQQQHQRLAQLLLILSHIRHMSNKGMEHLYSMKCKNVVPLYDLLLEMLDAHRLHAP

[3] = target: T1, human wt-ERβ LBD (estrogen receptor …); assay: as above
[4] = target: T2, human wt-ERα LBD (estrogen receptor …); assay: fluorescence polarisation; fluorescence anisotropy; 4 nM fluorescein-SRC-1 NR2 peptide, LBD diluted 2-fold from 10 uM (ERα) or 20 uM (ERβ); with BPC at 20 uM (ERα) or 40 uM (ERβ); 20 mM Tris pH 8.0, 150 mM NaCl, 5 mM DTT, 10% glycerol
[5] = target: T1, human wt-ERβ LBD (estrogen receptor …); assay: as above
[6] = target: T1, human wt-ERβ LBD (estrogen receptor …); assay: fluorescence polarisation; fluorescence anisotropy; 4 nM fluorescein-SRC-1 NR2 peptide, LBD diluted 2-fold from 10 uM (ERα) or 20 uM (ERβ); with HPTE at 20 uM (ERα) or 40 uM (ERβ); 20 mM Tris pH 8.0, 150 mM NaCl, 5 mM DTT, 10% glycerol
[7] = target: T1, human wt-ERβ LBD (estrogen receptor …); assay: fluorescence polarisation; fluorescence anisotropy; 4 nM fluorescein-SRC-1 NR2 peptide, LBD diluted 2-fold from 10 uM (ERα) or 20 uM (ERβ); with BP-2 at 20 uM (ERα) or 40 uM (ERβ); 20 mM Tris pH 8.0, 150 mM NaCl, 5 mM DTT, 10% glycerol
[8] = target: T1, human wt-ERβ LBD (estrogen receptor …); assay: fluorescence polarisation; fluorescence anisotropy; 4 nM fluorescein-SRC-1 NR2 peptide, LBD diluted 2-fold from 10 uM (ERα) or 20 uM (ERβ); with 4-OP at 20 uM (ERα) or 40 uM (ERβ); 20 mM Tris pH 8.0, 150 mM NaCl, 5 mM DTT, 10% glycerol

Kd [1]: 4330 nM
Kd [2]: 110 nM
Kd [3]: 680 nM
Kd [4]: 9070 nM
Kd [5]: 6320 nM
Kd [6]: 10900 nM
Kd [7]: 990 nM
Kd [8]: 1550 nM
B1: fluorescein-RHKILHRLLQEGS peptide corresponding to the NR box 2-binding motif of SRC-1 (peptide)
peptide: fluorescein-RHKILHRLLQEGS
notes: also called SRC-1 NR2 peptide; fluorescein-labeled SRC-1 NR2 peptide; source: bought: EZbiolab
